IntAct's records for PubMed 29128334

B1: Serine/threonine-protein kinase PINK1, mitochondrial (Homo sapiens), Q9BXM7 (parent)
chain: MAVRQALGRGLQLGRALLLRFTGKPGRAYGLGRPGPAAGCVRGERPGWAAGPGAEPRRVGLGLPNRLRFFRQSVAGLAARLQRQFVVRAWGCAGPCGRAVFLAFGLGLGLIEEKQAESRRAVSACQEIQAIFTQKSKPGPDPLDTRRLQGFRLEEYLIGQSIGKGCSAAVYEATMPTLPQNLEVTKSTGLLPGRGPGTSAPGEGQERAPGAPAFPLAIKMMWNISAGSSSEAILNTMSQELVPASRVALAGEYGAVTYRKSKRGPKQLAPHPNIIRVLRAFTSSVPLLPGALVDYPDVLPSRLHPEGLGHGRTLFLVMKNYPCTLRQYLCVNTPSPRLAAMMLLQLLEGVDHLVQQGIAHRDLKSDNILVELDPDGCPWLVIADFGCCLADESIGLQLPFSSWYVDRGGNGCLMAPEVSTARPGPRAVIDYSKADAWAVGAIAYEIFGLVNPFYGQGKAHLESRSYQEAQLPALPESVPPDVRQLVRALLQREASKRPSARVAANVLHLSLWGEHILALKNLKLDKMVGWLLQQSAATLLANRLTEKCCVETKMKMLFLANLECETLCQAALLLCSWRAAL
partner: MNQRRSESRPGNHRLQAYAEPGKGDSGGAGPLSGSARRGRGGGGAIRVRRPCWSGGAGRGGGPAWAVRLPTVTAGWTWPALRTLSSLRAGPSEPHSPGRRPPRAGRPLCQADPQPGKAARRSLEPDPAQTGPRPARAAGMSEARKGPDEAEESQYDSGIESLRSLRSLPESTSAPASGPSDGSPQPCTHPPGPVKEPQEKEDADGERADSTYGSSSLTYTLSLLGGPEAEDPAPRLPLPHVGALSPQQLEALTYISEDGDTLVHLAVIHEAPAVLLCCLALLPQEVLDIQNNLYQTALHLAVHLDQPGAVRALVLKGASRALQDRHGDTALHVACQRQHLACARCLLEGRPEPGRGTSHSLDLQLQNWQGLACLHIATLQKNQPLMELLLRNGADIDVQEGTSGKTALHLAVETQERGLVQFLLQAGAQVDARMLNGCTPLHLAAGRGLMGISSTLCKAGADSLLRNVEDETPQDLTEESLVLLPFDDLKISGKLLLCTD
B2: Peroxiredoxin-5, mitochondrial (Homo sapiens), P30044 (parent)
chain: MGLAGVCALRRSAGYILVGGAGGQSAAAAARRYSEGEWASGGVRSFSRAAAAMAPIKVGDAIPAVEVFEGEPGNKVNLAELFKGKKGVLFGVPGAFTPGCSKTHLPGFVEQAEALKAKGVQVVACLSVNDAFVTGEWGRAHKAEGKVRLLADPTGAFGKETDLLLDDSLVSIFGNRRLKRFSMVVQDGIVKALNVEPDGTGLTCSLAPNIISQL
B3: Dihydrolipoyl dehydrogenase, mitochondrial (Homo sapiens), P09622 (parent)
chain: MQSWSRVYCSLAKRGHFNRISHGLQGLSAVPLRTYADQPIDADVTVIGSGPGGYVAAIKAAQLGFKTVCIEKNETLGGTCLNVGCIPSKALLNNSHYYHMAHGKDFASRGIEMSEVRLNLDKMMEQKSTAVKALTGGIAHLFKQNKVVHVNGYGKITGKNQVTATKADGGTQVIDTKNILIATGSEVTPFPGITIDEDTIVSSTGALSLKKVPEKMVVIGAGVIGVELGSVWQRLGADVTAVEFLGHVGGVGIDMEISKNFQRILQKQGFKFKLNTKVTGATKKSDGKIDVSIEAASGGKAEVITCDVLLVCIGRRPFTKNLGLEELGIELDPRGRIPVNTRFQTKIPNIYAIGDVVAGPMLAHKAEDEGIICVEGMAGGAVHIDYNCVPSVIYTHPEVAWVGKSEEQLKEEGIEYKVGKFPFAANSRAKTNADTDGMVKILGQKSTDRVLGAHILGPGAGEMVNEAALALEYGASCEDIARVCHAHPTLSEAFREANLAASFGKSINF
partner: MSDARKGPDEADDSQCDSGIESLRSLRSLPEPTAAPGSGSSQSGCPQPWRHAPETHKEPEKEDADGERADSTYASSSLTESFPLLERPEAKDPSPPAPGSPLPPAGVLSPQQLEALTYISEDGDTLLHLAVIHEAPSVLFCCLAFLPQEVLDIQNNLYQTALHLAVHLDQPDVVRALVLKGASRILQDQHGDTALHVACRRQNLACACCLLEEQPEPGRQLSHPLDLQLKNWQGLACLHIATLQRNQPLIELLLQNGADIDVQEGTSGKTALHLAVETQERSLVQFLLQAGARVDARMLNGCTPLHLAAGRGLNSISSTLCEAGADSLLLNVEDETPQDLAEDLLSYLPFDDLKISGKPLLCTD

Variants of: B1
Settings: with ikbe_human NFKBIE

Variant | effect of a mutation on the interaction
A168P | disrupting interaction strength

Variants of: B2
Settings: with sodc_human SOD1, P00441
sodc_human SOD1, P00441, sequence (P00441 whole entry): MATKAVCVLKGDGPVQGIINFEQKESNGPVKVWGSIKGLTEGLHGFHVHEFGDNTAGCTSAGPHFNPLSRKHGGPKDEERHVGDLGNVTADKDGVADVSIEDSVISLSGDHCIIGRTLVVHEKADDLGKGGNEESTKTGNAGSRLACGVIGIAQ

Variant | effect of a mutation on the interaction
E80K | with no effect
K83R | with no effect
K85R | disrupting interaction strength

Variants of: B3
Settings: with ikbe_mouse Nfkbie

Variant | effect of a mutation on the interaction
S491A | disrupting interaction strength
